{"source": "patent US12649772B2", "target": "myelin basic protein peptide on HLA-DRB1*15:01 (human)", "test": "estimate stated in the description; not measured in this filing"}
{"substance": "Ob.1A12", "values": [{"measurement": "Kd", "result": "> 100", "unit": "µM"}]}
